Test results published in article doi:10.1101/2023.06.06.543969 (bioRxiv, 2023).

Experiments:
Assay in all cases: BLI
Settings in all cases: both partners purified
[1] = biological target: influenza hemagglutinin (HA) from H1N1 A/California/07/2009 (Influenza A virus H1N1 …, UniProt C3W5X2, biotinylated)
[2] = biological target: T1, biotinylated αTSR domain of P. falciparum circumsporozoite protein (Plasmodium falciparum 3D7 (by PDB 7RXI))
T1 construct: also called P. falciparum CSP; C-terminal αTSR domain of P. falciparum circumsporozoite protein
T1 chain: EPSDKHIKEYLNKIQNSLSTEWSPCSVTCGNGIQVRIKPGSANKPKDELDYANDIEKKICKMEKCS

[3] = biological target: T2, His6-tagged SARS-CoV-2 receptor-binding domain (SARS-CoV-2, UniProt P0DTC2)
T2 construct: source: High Five cells, purified (Ni-NTA, size exclusion)

B1: 5J8 Fab (WT) (Fab, V domains shown)
VH: EVQLVESGPGLVKPSDILSLTCAVSGYSISSNYYWGWIRQPPGKGLEWIGSIYHSGSTYYKPSLESRLGISVDTSKNQFSLKLSFVSAADTAVYYCARHVRSGYPDTAYYFDKWGQGTLVTVSS
VL: SYVLTQPPSVSVAPGETARISCGGNNIGTKVLHWYQQTPGQAPVLVVYDDSDRPSGIPERFSGSNSGNTATLTISRVEVGDEADYYCQVWDISTDQAVFGGGTKLTVL
notes: also called IGLV3–21 antibody 5J8; source: ExpiCHO, transiently co-transfected, purified (CaptureSelect CH1-XL)
binding result [1]: binds

B2: Fab234 (WT) (Fab, V domains shown)
VH: EVQLVESGGGLVKPGGSLRLSCAASGFNFSTHIMNWVRQAPGKGLEWVSSISSSGTYIYYADSMKGRFTISRDNPKNSLYLQMNSLRAEDTAVYYCARARGFIQFHYYMDVWGKGTTVAVSS
VL: SYVLTQPPSVSVAPGKTARITCGGNNIGSKSVHWHQQRPGQAPVLVVYDDKIRPSGIPERFSGSNSGNTATLIISRVEAGDEADYYCQVWHSSSDPVVFGGGTKLTVL
binding result [2]: binds

B3: GAR12 Fab VL D50K (Fab, V domains shown)
VH: EVQLVQSGGGLVQPGGSLRLSCAASGFTFSSYAMSWVRQAPGKGLEWVLSISGSGGSTYYADSVKGRFTISIDNSKKTVYLQMNSLRAEDTAVYYCAKSGEQQLVQAEYFHHWGQGTLVTVSS
VL: DIQMTQSPSTLSASVGDRVTITCRASQSIGRWLAWYQQKPGKAPKLLIYKASSLESGVPSRFSGSGFGTEFTLTISSLQPDDFATYYCQQCDSLLTFGGGTKLEIK
notes: also called GAR12 VL D50K; source: ExpiCHO, transiently co-transfected, purified (CaptureSelect CH1-XL)
fold change in KD against the wild type [3]: 44 fold
